{
  "source": "patent US20030175848A1",
  "about": "“Substituted dithiobisnitrobenzenes and their applications” (Institut Pasteur De Lille, priority 1998, published 2003)",
  "proteins": {"B1": {"name": "trypanothione reductase from Trypanosoma cruzi (TcTR) (Trypanosoma cruzi) (protein)", "chain": "MMSKIFDLVVIGAGSGGLEAAWNAATLYKKRVAVIDVQMVHGPPFFSALGGTCVNVGCVPKKLMVTGAQYMEHLRESAGFGWEFDRTTLRAEWKKLIAVKDEAVLNINKSYEEMFRDTEGLEFFLGWGSLESKNVVNVRESADPASAVKERLETENILLASGSWPHMPNIPGIEHCISSNEAFYLPEPPRRVLTVGGGFISVEFAGIFNAYKPKDGQVTLCYRGEMILRGFDHTLREELTKQLTANGIQILTKENPAKVELNADGSKSVTFESGKKMDFDLVMMAIGRSPRTKDLQLQNAGVMIKNGGVQVDEYSRTNVSNIYAIGDVTNRVMLTPVAINEAAALVDTVFGTNPRKTDHTRVASAVFSIPPIGTCGLIEEVASKRYEVVAVYLSSFTPLMHNISGSKYKTFVAKIITNHSDGTVLGVHLLGDNAPEIIQGVGICLKLNAKISDFYNTIGVHPTSAEELCSMRTPSYYYVKGEKMEKPSEASL"}},
  "substrate": "CN(C)CCCNC(=O)c1cc(SSc2ccc([N+](=O)[O-])c(C(=O)NCCCN(C)C)c2)ccc1[N+](=O)[O-]",
  "experiment": "purified protein, by the assay type",
  "conditions": "other: substrate of recombinant TcTR, 25° C., buffer A pH 7.25, 0.2 mM NADPH, * = estimated at low substrate concentrations (15-200 μM), inhibition effects",
  "description": "The TcTR concentration is determined by measuring the number of subunits containing FAD at 461 nm (ε=11.3 mM^−1×cm^−1); the enzymatic activity is tested as specified in (28). One TR unit corresponds to 1 μmol of T(S)2 reduced per minute at 25° C. in a buffer A (20 mM Hepes, pH 7.25 containing 1 mM EDTA and 0.15 M KCl).\nThe enzyme stock solutions used for the kinetic determinations are pure (verification in SDS-PAGE) and have a specific activity of 137 U/mg in the T(S)2 reduction test performed in the presence of 500 μM NADPH and 518 μM T(S)2 in a buffer A.\nAll the kinetic studies are carried out in the same buffer at 25° C., in the presence of 200 μM of NADPH.\nAll the tests were carried out at 25° C. in 20 mM HEPES, 1 Mm EDTA, 150 mM KCl, at pH 7.25 (buffer A) and in the presence of 0.2 mM NADPH.",
  "data": [
    {"protein": "B1", "values": [
      {"measurement": "Km", "value": 35, "unit": "µM"},
      {"measurement": "kcat", "value": 125, "unit": "s⁻¹"},
      {"measurement": "kcat/Km", "value": "3.6e+06", "unit": "M⁻¹ s⁻¹"}
    ]}
  ]
}
